Data as given in patent US9198909B1, “Materials and methods for inhibiting mamalian S-nitrosoglutathione reductase” (Indiana University Research and Technology Corporation, priority 2007, dated 2015).

Substrate: CCCCCCCCO
Assay: GSNOR substrate kinetics with octanol
Format: biochemical, human
Settings: other: octanol as GSNOR substrate; pH 10.0
Description: GSNOR is an alcohol dehydrogenases and like other members of ADH family, is capable of oxidizing and reducing primary alcohols and aldehydes with the help of a molecule of NAD(H). Octanol was chosen as the substrate in the initial screening assay as it is bulky like GSNO, but has 200-fold higher KM value (1 mM) and a kcat value (200 min-1) that is more than 2 order of magnitude lower than that of GSNO. This allows the initial velocity conditions to prevail for a period up to 10 min (data not shown) and it enables conducting a large number of concurrent assays in a384 well plate format. The pH of the assay was adjusted to pH 10 in order to get significant rate of oxidation of octanol in the absence of compounds. The screening for GSNOR inhibitors was performed in the presence of saturating concentration of NAD^+ and an un-saturating concentration of octanol thereby increase the probability of identifying compounds that bind, only or primarily in the GSNO binding site of GSNOR. This was deemed desirable as there are many dehydrogenases inside the cells and compounds binding in the coenzyme binding site are more likely to be nonspecific inhibitors of GSNOR, than compounds that bind primarily to the form of GSNOR that binds GSNO.

B1: GSNOR (Homo sapiens) (protein)
chain: MANEVIKCKAAVAWEAGKPLSIEEIEVAPPKAHEVRIKIIATAVCHTDAYTLSGADPEGCFPVILGHEGAGIVESVGEGVTKLKAGDTVIPLYIPQCGECKFCLNPKTNLCQKIRVTQGKGLMPDGTSRFTCKGKTILHYMGTSTFSEYTVVADISVAKIDPLAPLDKVCLLGCGISTGYGAAVNTAKLEPGSVCAVFGLGGVGLAVIMGCKVAGASRIIGVDINKDKFARAKEFGATECINPQDFSKPIQEVLIEMTDGGVDYSFECIGNVKVMRAALEACHKGWGVSVVVGVAASGEEIATRPFQLVTGRTWKGTAFGGWKSVESVPKLVSEYMSKKIKVDEFVTHNLSFDEINKAFELMHSGKSIRTVVKI
- Km: 1000 µM
- kcat: 3.33 s⁻¹
